{"source": "the DeepSol protein solubility set"}
{"assay": "soluble on expression in E. coli; label from the status in PepcDB or PDB records"}
{"sequence": "LSITDCRGAPLYEFRYPQQFYATFASVPPLLVHSLLFIENRDLLDPQQPLANPAVDWPRFVKAAWSQVAKMFALPGQSAGGSTLATQLEKYRHSPDGLTQSGSEKLRQMISASVRAYQPGAETLEVRQRVVRDYLNSVPLSAVPGHGEVHGLAEGLRVWFGVDFARTNQLLASGPTDQQGLADKALALREVLSLVIAQRRPSHYLAK", "soluble on expression in E. coli": "not soluble"}
{"sequence": "LSNLPRVKHTLVPPPFAHAHEQVAASGPVINEFEMRIIEKEVQLDEDAYLQAMTFDGSIPGPLMIVHEGDYVELTLINPPENTMPHNIDFHAATGALGGGGLTLINPGEKVVLRFKATRAGAFVYHCAPGGPMIPWHVVSGMAGCIMVLPRDGLKDHEGKPVRYDTVYYIGESDHYIPKDEDGTYMRFSDPSEGYEDMVAVMDTLIPSHIVFNGAVGALTGEGALKAKVGDNVLFVHSQPNRDSRPALIGGHGDLVWETGKFHNAPERDLETWFIRGGTAGAALYKFLQPGVYAYVNHNLIEAVHKGATAHVLVEGEWDNDLMEQVVAPVGLTG", "soluble on expression in E. coli": "soluble"}
{"sequence": "LSSVSSIPDYAEQLRTADLRVTRPRVAVLEAVNAHPHADTETIFGAVRFALPDVSRQAVYDVLHALTAAGLVRKIQPSGSVARYESRVGDNHHHIVCRSCGVIADVDCAVGEAPCLTASDHNGFLLDEAEVIYWGLCPDCSISDTSRSHP", "soluble on expression in E. coli": "soluble"}
{"sequence": "LTTHNFARKTFLKLAFCDICQKFLLNGFRCQTCGYKFHEHCSTKVPTMCVDW", "soluble on expression in E. coli": "soluble"}
{"sequence": "MAAAAAARKGGFWQRFAGKGVVQHCQSPTAPLPEACADMLWSNLGLLAAESIVPVLQNWARALKTDGLLFFTCFGRDTLAELKCRLKENGIESRSVMFPDMHDLGDMLAENGFYDPVTDTAKLVLDYKKAETFWADMDTLGIWRAMAWNDENAARSCVGTIFEREGGLGITLETVYGHAVKKLMLPQGENVVQFFPKRLEHHHHHH", "soluble on expression in E. coli": "soluble"}
{"sequence": "MAAHGGSAASSALKGLIQQFTTITGASESVGKHMLEACNNNLEMAVTMFLDGGGIAEEPSTSSASVSTVRPHTEEEVRAPIPQKQEILVEPEPLFGAPKRRRPARSIFDGFRDFQTETIRQEQELRNGGAIDKKLTTLADLFRPPIDLMHKGSFETAKECGQMQNKWLMINIQNVQDFACQCLNRDVWSNEAVKNIIREHFIFWQVYHDSEEGQRYIQFYKLGDFPYVSILDPRTGQKLVEWHQLDVSSFLDQVTGFLGEHGQLDGLSSSPPKKCARSESLIDASEDSQLEAAIRASLQETHFDSTQTK", "soluble on expression in E. coli": "not soluble"}
{"sequence": "MAAKQGESDPERKETRQKVDDDRKHEIEAAIVRIMKSRKKMQHNVLVAEVTQQLKARFLPSPVVIKKRIEGLIEREYLARTPEDRKVYTYVA", "soluble on expression in E. coli": "soluble"}
{"sequence": "MAALTKVKLCQLDDLMPFIGATVLIEGERVALFYIPDSGVYAVQDWDPIGKAYVMSRGIVGDINGEMCVASPLYKQHFSLKSGQCLEDEAHCLKTWRVTVDDNQVCYLAKELEHHHHHH", "soluble on expression in E. coli": "soluble"}
{"sequence": "MAAPSMKERQACWGARDLYWRCLDDNAEDAARCQKLRSSFEASCPQQWIKYFDKRRDYLKFKEKFEAGGFQSSQSTENS", "soluble on expression in E. coli": "soluble"}
{"sequence": "MAARLAASRIVHAGRGISQPTPFGKRMDRLSNRVWGEVVMPTDTKSLKVVRVMSAEPYETKEQLSPKYYPNLPMFHYLTKMLRFHGLFFDDHVVFRDVQDNLKIIRGKVVRPPIGQGKRAQLRGKK", "soluble on expression in E. coli": "not soluble"}
{"sequence": "MAAVPELLEQQEEDRSKLRSVSVDLNVDPSLQIDIPDALSERDKVKFTVHTKTTLSTFQSPEFSVTRQHEDFVWLHDTLTETTDYAGLIIPPAPTKPDFDGPREKMQKLGEGEGSMTKEEFAKMKQELEAEYLAVFKKTVSTHEVFLQRLSSHPVLSKDRNFHVFLEYDQDLSVRRKNTKEMFGGFFKSVVKSADEVLFSGVKEVDDFFEQEKNFLINYYNRIKDSCAKADKMTRSHKNVADDYIHTAACLHSLALEEPTVIKKYLLKVAELFEKLRKVEGRVSSDEDLKLTELLRYYMLNIEAAKDLLYRRTKALIDYENSNKALDKARLKSKDVKLAETHQQECCQKFEQLSESAKEELINFKRKRVAAFRKNLIEMSELEIKHARNNVSLLQSCIDLFKNN", "soluble on expression in E. coli": "soluble"}
{"sequence": "MAAWTPDLEAELSQLLKDWLKQQGRTQADLRRSLKAVSTRMPALLEVLEREHRLNGLSGLLARLCRVETEWHGGADHTSEAAEQSDPFGQLDLLLQEIRQDCPS", "soluble on expression in E. coli": "not soluble"}
{"sequence": "MACTAADVVEEDLMSDRIANAQLRGKVMSAEEAAQFVNHGDKVGVSGFTGAGYPKALPTAIAERAKEAHARGDEYMIDLFTGASTAPDCDGVLAEADALRFRTPYQSDPILRSKINDGTTLYADYHLSESGIYVEQGFFGQMNVAIVEAVRITEEGHIVPSSSVGNNVEYLDNAEKIIIEVNSWQSEELEGMADIYRMNKLPNRQPIPITEAGQRIGTTYIDIDLSKVVAVVETDAPDRNAPFKPLDETSKQIAGHFLDFLEGEVAAGRLTYDGYVMQSGVGNVPNAVMAGLLDSKFENIKAYTEVIQDGMVDLIDAGKMTVASATSFSLSPEYAERMNAEAKNYAQKIILRPQQISNHPEVVRRLGLICTNGLIEADIYGNVNSTNVTGSRMMNGVGGSADFTRNGFISSFITPSVAKGGDISAFVPFVSHVDHTEQDVKVLISEYGYADLRGLAPRQRVEKIIAIAHPDYRPLLQDYYDRALAFAKEKKIMQTPHLLGEALSFHQRFQETGSMKK", "soluble on expression in E. coli": "not soluble"}
{"sequence": "MADAEGDPLQAFWTQVVRLRDLLKFDFYFADSAAFHQNVAEEMSWHADWEQQVRAGRDGIETLMRAKRPLLADAMLRPYFEAYTIVADVLRDAPAEIAEKDLTKLALGVGQQYVAQGRVRNNESVSALLFATARQVAADQGLLEHGPDLMEQRRAFRDELRGILRDLDTVDRYARELFAARERERRTKRDEAVLEHHHHHH", "soluble on expression in E. coli": "not soluble"}
{"sequence": "MADETDITHTKWLAYSKSLKIDLTYPGINGIGIIYNIQADQLDDYIEKQRVLRPNYAIHPSHNESEYWPITYVEPAAPNKKAIGLDMAFETNRYSSIKKARDTGVAQLTGPITLVQDAKKTPGFLFYTPFYKNGTKPESTEARRDAIDGVTYAPFIMKNLMQGTLAEKNRHVSIQIRDAGDLLFDDHDDESVLDADANPLFTKEQDISLYGRTWSFTIQSNLDFRDESAANQLEHHHHHH", "soluble on expression in E. coli": "soluble"}
{"sequence": "MADFDTNPTSLYSIKGIVILDQDGNRVLAKYYDRTTFGTVKEQKAFEKSLFSKTSRNTSADILLLDGVTCLYRSNVDLYFYVLGSTRENELFLDATLTCLYDAVSVVLRKNVEKKALIDSMDTIMLIIDEICDEGIIMETDAQAVVQRTALKSDEVSFSDQSVSQIGFSFMKSANEQFKWSLLK", "soluble on expression in E. coli": "not soluble"}
{"sequence": "MADILLLDNIDSFTYNLVDQLRSSGHRVVIYRNHIAADNIIERLQQLEQPVLMLSPGPGTPAQAGCMPELLQRLQGQLPMIGICLGHQAIIEAYGGHVGQAGEILHGKASAIEHDGQGMFAGMPNPLPVARYHSLVGSNLPAELTVNARFGEMVMAVRHDAHRVCGYQFHPESILTTHGARLLEQTLAWALA", "soluble on expression in E. coli": "not soluble"}
{"sequence": "MADLPISLLQTLAYKQPLGRNSRIVHFTDGALFPVVAFGDNHSTSELYIAVRGDHRDLMSPDVRDSYALTGDDHKVWGATHHTYYVEGAPKKPLKFNVKTRTDLTILPVADVFWRADGSADVDVVWNDMPAVAGQSSSIALALASSLPFVPKAAYTGCLSGTNVQPVQFGNLKARAAHKIGLPLVGMTQDGGEDTRICTLDDAADHAFDSMESTVTR", "soluble on expression in E. coli": "soluble"}
